Data taken from patent publication US20260234276A1 (DOMAIN THERAPEUTICS, published 2026).

B1: 3-67 (Fab, V domains shown)
VH: QVQLQQSGPGLVKPSQTLSLTCAISGDSVSSNSAAWNWIRQSPSRGLEWLGRTYYRSKWYNDYAVSVKSRITINPDTSKNQFSLQLNSVTPEDTAVYYCARAARLGMDVWGKGTMVTVSS
VL: QSVVTQPPSVSAAPGQKVTISCSGTSFNIGNNYVSWYQQLPGTAPKLLIYDNIRRPSGIPERFSGSKSGTSATLGITGLQTGDEADYYCGTWDSSLRAYVFGTGTKLTVLG
notes: soluble Fab from phage display library huFabL-4, Flag tag
B2: 3-69 (Fab, V domains shown)
VH: QVQLQQSGPGLVKPSQTLSLTCAISGDSVSSNSAAWNWIRQSPSRGLEWLGRTYYRSKWYNDYAVSVKSQITINPDTSKNQFSLQLNSVTPEDTAVYYCAREQFSGMDVWGRGTLVTVSS
VL: QSVLTQPPSASGTPGQRVTISCSGSSSNIGRNYVYWYQQLPGTAPKLLTDSNNQRPSGVPDRFSASKSGTSASLAISGLRSEDEADYYCAAWDGSLRGRVFGGGTKMTVLG
notes: as for B1
B3: 3-61 (Fab, V domains shown)
VH: QVQLVESGAEVKKPGASVKVSCKASGYTFTSYYMHWVRQAPGQGLEWMGIINPSGGGTKYAQSLQGRVTMTRDTSTSTVYMELNSLTSEDTAVYYCARGGTPSGLDYWGKGTLVTVSS
VL: DIQMTQSPSSLSASVGDRVTITCRASQGISNYLAWYQQKPGKVPKLLIYAASTLQSGVPSRFSGSGSGTDFTLTISSLQPEDVATYYCQKYNSAPLTFGGGTKVEIKR
notes: as for B1
B4: 3-73 (Fab, V domains shown)
VH: QVQLQQSGPGLVKPSQTLSLTCAISGDSVSSSTAAWNWIRQSPSRGLEWLGRTYYRSKWYNDYAVSVKSRITINPDTSKNQFSLQLNSVTPEDTAVYYCARAEAGGRFDYWGQGTLVTVSS
VL: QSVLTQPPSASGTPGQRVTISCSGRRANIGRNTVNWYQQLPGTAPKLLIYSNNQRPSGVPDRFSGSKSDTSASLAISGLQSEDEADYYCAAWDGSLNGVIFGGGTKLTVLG
notes: as for B1
B5: 3-71 (Fab, V domains shown)
VH: QVQLQESGGGLVKPGRSLRLSCTASGFTFSSYAMSWVRQAPGKGLEWVSVNSGSGGTTYYADSVKGRFTISRDNAKNTLYLQMNSLRAEDTAVYYCARVSRYYDILTGYVYAFDIWGKGTLVTVSS
VL: QSVVTQPPSVSAAPGQKVSISCSGSSSNIGKNYVSWYQQLPGTAPKLLIYDNNKRPSGIPDRFSGSKSGTSATLGITGLQAEDEADYYCQSYDRSLGVVFGGGTKLTVLG
notes: as for B1
B6: 3-64 (Fab, V domains shown)
VH: QLQLQESGGGLVQPGGSLRLSCAASGFTFSSYAMSWVRQAPGKGLEWVSAISGSGGSTYYADSVKGRFTISRDNSKNTLYLQMNSLRAEDTAVYYCASGHSSHAFEIWGQGTTVTVSS
VL: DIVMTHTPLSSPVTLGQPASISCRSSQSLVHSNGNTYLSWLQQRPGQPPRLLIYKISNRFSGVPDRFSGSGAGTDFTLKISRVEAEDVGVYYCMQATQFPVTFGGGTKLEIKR
notes: as for B1
B7: 3-56 (Fab, V domains shown)
VH: EVQLVQSGGGVVQPGRSLRLSCAASGFTFSTYGMHWVRQAPGKGLEWVAVISYDGSKKYYADSVKGRFTISRDNSRNTVYLQMDSLRSEDTAVYYCAKDLSWPVRRLDVWGKGTMVTVSS
VL: EIVLTQSPLSLPVTLGQPASISCRSSQSLVYSTGNTYLNWFHQRPGQSPRRLIYQVSNRDSGVPDRFSGSGSGTDFTLKISRVEADDVGVYYCMQGTHWPPTFGQGTKVEIKR
notes: as for B1
B8: 3-59 (Fab, V domains shown)
VH: GVQLVQSGGGLVQPGGSLRLSCAASGFTFSSYSMNWVRQAPGKGLEWVAVISYDESNKYYADSVKGRFTISRDNSKNTLYLQMNSLRAEDTAVYYCAPGGSYHDYWGKGTLVTVSS
VL: EIVLTQSPLSLPVTLGQPASISCRSSQSLAHSNGNTYLNWFQQRPGQSPRRLIYKVSNRDSGVPDRFSGSGSGTDFTLKISRVEADDVGVYYCMQGSHWPPTFGQGTKVEIKR
notes: as for B1
B9: 3-57 (Fab, V domains shown)
VH: QMQLVQSGAEVKKPGASVKVSCKASGYTFTSYYMHWVRQAPGQGLEWMGIINPSGGSTSYAQKFQGRVTMTRDTSTSTVYMELSSLRSEDTAVYYCARAGVRGVFGMDVWGKGTLVTVSS
VL: QSALTQPASVSGSPGQSITISCTGTSSDLGAYNYVSWYQQHPGKAPRLMIYDVSKRPSGVPDRFSGSKSDNTASLTISGLQAEDEADYYCSSYTSSSTLVFGGGTKVTVLS
notes: as for B1
B10: 3-55 (Fab, V domains shown)
VH: QVQLQQSGPGLVKPSQTLSLTCAISGDSVSSSTAAWNWIRLSPSRGLEWLGRTYYRSKWYNDYAVSVKSRINISPDTSKNQFSLQLNSVTPEDTGVYYCARGYSRSMDVWGKGTLVTVSS
VL: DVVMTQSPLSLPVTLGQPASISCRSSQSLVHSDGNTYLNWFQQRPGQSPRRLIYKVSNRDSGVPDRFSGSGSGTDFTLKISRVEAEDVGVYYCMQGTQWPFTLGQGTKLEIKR
notes: as for B1
B11: 3-68 (Fab, V domains shown)
VH: QVQLQQSGPGLVKPSQTLSLTCAISGDSVSRNTAAWNWIRQSPSRGLEWLGRTYYRSKWYNDYAVSVKSRITIRPDTSKNQISLQLTSVTPEDTAVYYCARGVHNAFDIWGRGTMVTVSS
VL: ETTLTQSPGTLSLSPGERATLSCRASQSVGNRYLAWYQQKPGQAPRLLIYGASSRATGIPDRFSGSGSGTDFTLTISRLEPEDFAVYYCQQYSGSTGYTFGQGTKLEIKR
notes: as for B1
B12: 3-72 (Fab, V domains shown)
VH: QVTLKESGGGVVQPGRSLRLSCAASGFTFSSYAMHWVRQAPGKGLEWVAVISYDGSNKYYADSVKGRFTISRDNSKNTLYLQMNSLRAEDTAVYYCASSLLGAFDVWGKGTLVTVSS
VL: DVVMTQSPLSLPVTPGEPASISCRSSQSLLHSNGYNYLSWYLQRPGQSPQLLMYLGSKRASGVPDRFSGSGSGTDFTLEISRVEAEDVGIYYCMQALQTPLTFGGGTKVEIKR
notes: as for B1
B13: 3-60 (Fab, V domains shown)
VH: QVQLVQSGGGVVQPGRSLRLSCAASGFTFSSYAMHWVRQAPGKGLEWVAVISYDGSNKYYADSVKGRFTISRDNAKNSLYLQMNSLRAEDTAVYYCAREQAARPTLGAFDIWGKGTTVTVSS
VL: DVVMTQSPLSLPVTPGEPASISCRSSQSLLHSNGNNYLAWYLQKPGQSPQLLMYLGSNRASGVPDRFSGSGSGTDFTLKISRVEAEDVGVYYCMQGIHLPLTFGGGTKVEIKR
notes: as for B1
B14: 3-63 (Fab, V domains shown)
VH: QVQLQESGGGVVQPGRSLRLSCAASGFTFSSYGMHWVRQAPGKGLEWVAVISYDGSNKYYADSVKGRFTISRDNSKNTLYLQMNSLRAEDTAVYYCARDRPGGMDVWGKGTMVTVSS
VL: DVVMTQSPLSLPVTLGQPASISCRSSQSLVHSNGNTYLTWFQQRPGQSPRRLIYKVSNRDSGVPDRFSGSGSGTDFTLKISRVEAEDVGVYYCMQGTRWYTFGQGTKLEIKR
notes: as for B1
B15: 3-74 (Fab, V domains shown)
VH: EVQLVQSGGGVVQPGRSLRLSCAASGFTFSNYGMHWVRQAPGKGLEWVAIISDDGSNRYYGDSVKGRFTISRDNSKNTLYLQMNSLRAEDTAVYYCAKSLTTSYYYGMDVWGKGTLVTVSS
VL: QSALTQPPSASGSPGQSVTISCTGTSSDIGGYIYVSWYQQHPGKAPKLIIYEVHKRPSGVSNRFSASKSANTASLTISGLQAEDEADYYCSSYSSSRTVLFGGGTKLTVLG
notes: as for B1
B16: 3-62 (Fab, V domains shown)
VH: QVQLQQSGPGLVKPSQTLSLTCAISGDSVSNNSAAWNWIRQSPSRGLEWLGRTYYRSKWYTDYAVSVKSRITINPDTSKNQFSLQLNSVTPEDTAVYYCARASGYSSGQVEYWGKGTLVTVSS
VL: QSVLTQPPSVSAAPGQKVTISCSGSSSNIGNNYISWYQQVPGTAPKLLIYGNNKRPSGIPARFSGSKSGTSATLDITGLQIGDEADYYCGTWESSLRAVVFGGGTKLTVLG
notes: as for B1
B17: 3-54 (Fab, V domains shown)
VH: QVQLVQSGAEVKKPGASVKVSCKASGYTFSGYYIHWVRQAPGQGLEWMGWINPNSGGTNYAQNFQGRVTMTRDTSISTAYMELSRLRSDDTAMYYCARGNGAMDVWGRGTLVTVSS
VL: DVVMTQSPLSLPVTSGKPASISCRSSQSLLHSNGYNYLDWYLQKPGQSPQLLIYLGSNRASGVPDRFSGSGSGTDFTLKISRVEAEDVGVYYCMQGTYWPRTFGQGTKVEIKR
notes: as for B1
B18: 3-75 (Fab, V domains shown)
VH: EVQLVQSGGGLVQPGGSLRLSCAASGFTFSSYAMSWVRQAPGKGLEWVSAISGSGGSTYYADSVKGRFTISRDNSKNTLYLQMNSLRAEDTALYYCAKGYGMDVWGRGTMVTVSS
VL: LPMLTQPPSVSGTPGQRVTISCSGSTSNIGSRPVNWYQQLPGTAPKLLIYRNYQRPSGVPDRFSGSKSGTSASLAISGLRSEDEADYYCAAWDDSLSGWVFGGGTKLTVLG
notes: as for B1

How the values were obtained:
streptavidin = molecular target: T1, streptavidin (UniProt P22629 37-163, limits assumed); assay: ELISA, soluble Fab on streptavidin-coated control well without peptide
T1 construct: control well without peptide
Protocol: (§1) The wells of a microtiter plate were coated with 200 ng streptavidin protein in 100 μL Coating Buffer (0.1 M NaHCO₃, pH 8.6), and then incubated overnight at 4° C. For negative control, the wells were coated with PBS to determine non-specific binding. After shaking out the coating solution, the wells were washed three times with washing buffer (0.1% Tween 20-PBS). To prevent non-specific binding, 200 μL Blocking Buffer (3% BSA-PBS) was adding and incubated for 2 h at 37° C. After shaking out the blocking buffer, the wells were incubated with 50 ng biotinylated target peptide (SEQ ID NO: 420; see Example 10) in 100 μL Blocking Buffer for 1 h at 37° C. The control well was incubated with only 100 μL Blocking Buffer for 1 h at 37° C. After shaking out the biotinylated target peptide or buffer solution, the wells were washed 3 times with the washing buffer (0.1% Tween 20-PBS). Then 100 μL supernatant containing soluble Fab were added and incubated for 2 h at 37° C. Following three washes with washing buffer (0.1% Tween 20-PBS) for 3 times, 100 μL/well HRP conjugate of mouse anti-Flag tag mAb (Sigma A8592, 1:5000) diluted in Blocking Buffer were added and incubated for 1 h at 37° C. After washings, 3,3′,5,5′-tetramethylbenzidine (TMB) (Sigma) were added for 5 to 30 min at room temperature. The reaction was stopped by adding 50 μL/well of 1 M H₂SO₄.

[1] = molecular target: T2, biotinylated CCR8 peptide (human, N-terminal biotin); assay: ELISA, soluble Fab on biotinylated CCR8 peptide captured on streptavidin
T2 construct: first 34 residues of human CCR8 plus a C-terminal K; also called biotinylated target peptide
Protocol: as §1

T1 sequence (P22629 37-163 limits assumed): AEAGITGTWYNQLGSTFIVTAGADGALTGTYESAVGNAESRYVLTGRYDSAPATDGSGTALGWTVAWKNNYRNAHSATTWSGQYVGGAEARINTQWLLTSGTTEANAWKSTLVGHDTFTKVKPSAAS

| Binder | Optical Density (streptavidin) | Optical Density [1] |
| --- | --- | --- |
| B1 | 0.06 OD450 | 2.23 OD450 |
| B2 | 0.07 OD450 | 2.67 OD450 |
| B3 | 0.06 OD450 | 2.43 OD450 |
| B4 | 0.07 OD450 | 2.27 OD450 |
| B5 | 0.08 OD450 | 2.4 OD450 |
| B6 | 0.07 OD450 | 3.64 OD450 |
| B7 | 0.08 OD450 | 2.35 OD450 |
| B8 | 0.06 OD450 | 1.4 OD450 |
| B9 | 0.1 OD450 | 2.39 OD450 |
| B10 | 0.07 OD450 | 2.34 OD450 |
| B11 | 0.06 OD450 | 3.64 OD450 |
| B12 | 0.09 OD450 | 3.26 OD450 |
| B13 | 0.06 OD450 | 3.66 OD450 |
| B14 | 0.09 OD450 | 3.66 OD450 |
| B15 | 0.09 OD450 | 2.81 OD450 |
| B16 | 0.07 OD450 | 3.6 OD450 |
| B17 | 0.08 OD450 | 2.76 OD450 |
| B18 | 0.08 OD450 | 3.67 OD450 |
